Reference: doi:10.1101/2025.04.22.649924

Target: ectodomain of APP^695
Test: SPR

SPR sensorgram peak (response units) | Substance
1650 RU | SORLA^N1358S ectodomain (soluble mutant SORLA ectodomain, hexa-His-tagged) (from UniProt Q92673 82-2137) (domain or fragment)
1750 RU | SORLA^WT ectodomain (soluble wildtype SORLA ectodomain, hexa-His-tagged) (from UniProt Q92673 82-2137) (domain or fragment)
